Common to all, as to type: cell-based
One test has as its target T1, NaV1.7 (Homo sapiens, UniProt Q15858).
T1 construct: expressed in transfected cells; host or cells: HEK293 (human embryonic kidney) cells stably expressing NaV1.7
The experiment in a line: Patch-clamp electrophysiology of HEK-NaV1.7 stable cells. To be noted: HEK-NaV1.7 cells, 500 nM peptide. The procedure:
HEK-NaV1.7 stable cell lines were plated at low density on glass cover slips for 3-4 hours and subsequently transferred to the recording chamber. Recordings were performed at room temperature (20-22° C.) […] using a MultiClamp 700B amplifier (Molecular Devices, Sunnyvale, CA). The composition of recording solutions consisted of the following salts: extracellular (mM): 140 NaCl, 3 KCl, 1 MgCl2, 1 CaCl2), 10 HEPES, 10 glucose, pH 7.3; intracellular (mM): 130 CH3O3SCs, 1 EGTA, 10 NaCl, 10 HEPES, pH 7.3. Membrane capacitance and series resistance were estimated by the dial settings on the amplifier and compensated for electronically by 70-80%. Data were acquired at 20 kHz and filtered at 5 kHz prior to digitization and storage. All experimental parameters were controlled by Clampex 9.2 software (Molecular Devices) and interfaced to the electrophysiological equipment using a Digidata 1200 analog-digital interface (Molecular Devices). Voltage-dependent inward currents for HEK-NaV1.7 cells were evoked by depolarizations to test potentials between −100 mV and +60 mV from a holding potential of −70 mV followed by a voltage pre-step pulse of −120 mV (NaV1.7). Steady-state (fast) inactivation of NaV channels was measured with a paired-pulse protocol. From the holding potential, cells were stepped to varying test potentials between −120 mv (Nar 1.7) and +20 mV (pre-pulse) prior to a test pulse to −20 mV.
Current densities were obtained by dividing Na+ current (INa) amplitude by membrane capacitance. Current-voltage relationships were generated by plotting current density as a function of the […]. Conductance (GNa) was calculated by the following equation:
GNa=INa/(Vm−Erev) • where INa is the current amplitude at voltage Vm, and Erev is the Na^+ reversal potential.
To test whether given peptides (10 in total, listed below) had modulatory effects on NaV1.7-mediated Na^+ currents, we used patch-clamp electrophysiology of human embryonic kidney cells stably expressing NaV1.7 (HEK-NaV1.7).
(In patch-clamp work, channel activity is measured electrically.)

In another test the target is T2, NaV1.6 (Homo sapiens, UniProt Q9UQD0).
T2 construct: expressed in transfected cells; host or cells: HEK293 cells stably expressing NaV1.6
Briefly: Whole-cell patch-clamp electrophysiology in HEK293 cells stably expressing NaV1.6 (HEK-NaV1.6). To be noted: for effect on NaV1.6 currents / Peak current density, Nav1.6 (Treatment): HEK-NaV1.6 cells; for effect on NaV1.6 currents: 500 nM peptide vs control; for Peak current density, Nav1.6 (Treatment): mean ± SEM (n). The procedure: HEK-NaV1.6 cells were plated at low density on glass cover slips for 3-4 hours and subsequently transferred to the recording chamber. Recordings were performed at room temperature (20-22° C.) after 48 h to thaw them using a MultiClamp 200B and 700B amplifier (Molecular Devices, Sunnyvale, CA). The composition of recording solutions consisted of the following salts; extracellular (mM): 140 NaCl, 3 KCl, 1 MgCl2, 1 CaCl2), 10 HEPES, 10 glucose, pH 7.3; intracellular (mM): 130 CH3O3SCs, 1 EGTA, 10 NaCl, 10 HEPES, pH 7.3. Membrane capacitance and series resistance were estimated by the dial settings on the amplifier and compensated for electronically by 70-75%. Data were acquired at 20 kHz and filtered at 5 kHz prior to digitization and storage. All experimental parameters were controlled by Clampex 9.2 software (Molecular Devices) and interfaced to the electrophysiological equipment using a Digidata 1200 analog-digital interface (Molecular Devices). Voltage-dependent inward currents for HEK-NaV 1.6 cells were evoked by depolarization to test potentials between −100 mV and +60 mV from a holding potential of −70 mV followed by a voltage pre-step pulse of −120 mV (Nar 1.6).
(§1) Current densities were obtained by dividing Na^+ current (INa^+) amplitude by membrane capacitance. Current-voltage relationships were generated by plotting current density as a function of the […].
(§2) Statistics were calculated as mean and standard error of the mean (mean SEM) using Prism 7 (La Jolla, CA). The statistical significance of observed differences among groups was determined by Student's t-test or for two group comparisons significance was tested with unpaired. Electrophysiological data analysis was performed using Clampfit 9 software (Molecular Devices).
To test whether Peptide 1, 3, 7 and 8 had any modulatory effects on NaV 1.6-mediated Na^+ currents, we used whole-cell patch-clamp electrophysiology in HEK293 cells stably expressing NaV1.6 (HEK-NaV1.6) channels; each group was either treated with peptides 1, 3, 7 and 8 (500 nM from a stock solution dissolved in H2O or DMSO) or H2O and 0.1% DMSO alone (control). […] However, peptide 7 potentiates the NaV1.6-mediated transient Na^+ currents (INa+), and were not statistically different compared to control (FIG. 17 A-C and Table 1).

The next test addresses T3, human NaV1.5 channel (Homo sapiens, UniProt Q14524).
T3 construct: expressed in transfected cells; host or cells: HEK293 cells stably expressing human NaV1.5 (G418 selection)
The experiment in a line: Whole-cell patch-clamp electrophysiology in HEK293 cells stably expressing NaV1.5 (HEK-NaV1.5). Conditions: HEK-NaV1.5 cells, 500 nM peptide vs control. How it is done:
HEK293 cells were maintained in DMEM and F-12 (Invitrogen, Carlsbad, CA), supplemented with 0.05% glucose, 0.5 mM pyruvate, 10% fetal bovine serum, 100 units/ml penicillin, and 100 μg/ml streptomycin (Invitrogen), and incubated at 37° C. with 5% CO2. HEK293 cells stably expressing the human NaV1.5 channel (hereafter referred to as HEK-NaV1.5 cells) were maintained similarly except for the addition of 500 μg/ml G418 (Invitrogen) to maintain stable NaV 1.5 expression. Cells were grown to 80-90% confluence, washed and re-plated at very low density prior to electrophysiological recordings.
as §1, §2
To test whether Peptide 1, 3, 7 and 8 had any modulatory effects on NaV 1.5-mediated Na^+ currents, we used whole-cell patch-clamp electrophysiology in HEK293 cells stably expressing NaV1.5 (HEK-NaV1.5) channels; each group was either treated with peptides 1, 3, 7 and 8 (500 nM from a stock solution dissolved in H2O or DMSO) or H2O and 0.1% DMSO alone (control).

Experimental findings from patent US20230374084A1, “POTENT AND SELECTIVE INHIBITORS OF NAV1.7” (ALDEVRON, LLC, priority 2020, published 2023) are described below.

Marks after values point to notes of the source that are not given here.

T1 sequence (Q15858 whole entry): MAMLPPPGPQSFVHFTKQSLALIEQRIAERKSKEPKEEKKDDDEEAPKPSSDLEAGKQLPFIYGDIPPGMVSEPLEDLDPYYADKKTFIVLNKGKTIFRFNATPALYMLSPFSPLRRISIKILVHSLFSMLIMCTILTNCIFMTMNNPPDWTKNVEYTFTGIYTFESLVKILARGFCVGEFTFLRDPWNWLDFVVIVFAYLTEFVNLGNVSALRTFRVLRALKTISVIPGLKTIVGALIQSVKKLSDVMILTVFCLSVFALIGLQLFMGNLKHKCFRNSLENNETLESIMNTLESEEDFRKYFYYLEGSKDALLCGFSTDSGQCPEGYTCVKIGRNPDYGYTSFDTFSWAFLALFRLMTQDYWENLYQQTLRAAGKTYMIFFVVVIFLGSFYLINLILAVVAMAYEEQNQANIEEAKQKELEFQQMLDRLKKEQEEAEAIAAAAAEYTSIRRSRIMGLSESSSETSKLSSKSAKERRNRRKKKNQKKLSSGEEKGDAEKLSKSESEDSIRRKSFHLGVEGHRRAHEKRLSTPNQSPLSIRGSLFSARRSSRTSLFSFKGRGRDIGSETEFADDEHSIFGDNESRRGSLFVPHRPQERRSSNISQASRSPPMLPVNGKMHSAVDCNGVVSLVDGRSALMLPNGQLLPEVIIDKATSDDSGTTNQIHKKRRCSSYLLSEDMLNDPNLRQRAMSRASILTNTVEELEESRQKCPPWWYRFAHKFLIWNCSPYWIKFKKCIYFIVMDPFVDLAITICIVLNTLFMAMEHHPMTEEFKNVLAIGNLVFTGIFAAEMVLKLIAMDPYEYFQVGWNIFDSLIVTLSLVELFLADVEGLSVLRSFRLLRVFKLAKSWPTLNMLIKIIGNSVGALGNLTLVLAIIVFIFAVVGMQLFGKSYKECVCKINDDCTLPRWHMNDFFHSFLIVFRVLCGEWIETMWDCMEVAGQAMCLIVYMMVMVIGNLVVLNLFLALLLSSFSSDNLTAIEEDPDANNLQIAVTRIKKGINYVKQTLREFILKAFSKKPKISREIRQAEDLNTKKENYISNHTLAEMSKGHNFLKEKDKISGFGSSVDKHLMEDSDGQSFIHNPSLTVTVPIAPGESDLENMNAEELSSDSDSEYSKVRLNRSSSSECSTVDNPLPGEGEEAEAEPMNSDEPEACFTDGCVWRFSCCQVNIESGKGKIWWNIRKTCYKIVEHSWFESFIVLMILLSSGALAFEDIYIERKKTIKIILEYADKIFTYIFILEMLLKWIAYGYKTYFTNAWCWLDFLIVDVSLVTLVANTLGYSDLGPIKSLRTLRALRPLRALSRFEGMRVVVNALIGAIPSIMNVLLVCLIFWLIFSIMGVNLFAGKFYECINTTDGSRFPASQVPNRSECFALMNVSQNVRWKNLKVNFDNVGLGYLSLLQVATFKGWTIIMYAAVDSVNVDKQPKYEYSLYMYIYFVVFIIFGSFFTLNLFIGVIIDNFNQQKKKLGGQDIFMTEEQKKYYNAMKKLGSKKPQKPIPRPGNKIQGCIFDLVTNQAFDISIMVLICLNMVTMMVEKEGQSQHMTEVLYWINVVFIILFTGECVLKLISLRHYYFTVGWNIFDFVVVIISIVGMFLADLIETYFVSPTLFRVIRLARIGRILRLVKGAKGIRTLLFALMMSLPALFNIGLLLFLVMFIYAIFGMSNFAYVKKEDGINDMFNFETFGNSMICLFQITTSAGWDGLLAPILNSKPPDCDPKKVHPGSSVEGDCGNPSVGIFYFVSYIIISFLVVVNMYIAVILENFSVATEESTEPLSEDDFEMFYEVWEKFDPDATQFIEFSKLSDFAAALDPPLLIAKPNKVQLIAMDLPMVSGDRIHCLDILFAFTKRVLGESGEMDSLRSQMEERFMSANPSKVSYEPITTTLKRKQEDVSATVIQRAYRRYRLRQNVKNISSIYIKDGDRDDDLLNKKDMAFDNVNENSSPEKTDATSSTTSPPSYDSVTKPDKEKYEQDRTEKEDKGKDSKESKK
T2 sequence (Q9UQD0 whole entry): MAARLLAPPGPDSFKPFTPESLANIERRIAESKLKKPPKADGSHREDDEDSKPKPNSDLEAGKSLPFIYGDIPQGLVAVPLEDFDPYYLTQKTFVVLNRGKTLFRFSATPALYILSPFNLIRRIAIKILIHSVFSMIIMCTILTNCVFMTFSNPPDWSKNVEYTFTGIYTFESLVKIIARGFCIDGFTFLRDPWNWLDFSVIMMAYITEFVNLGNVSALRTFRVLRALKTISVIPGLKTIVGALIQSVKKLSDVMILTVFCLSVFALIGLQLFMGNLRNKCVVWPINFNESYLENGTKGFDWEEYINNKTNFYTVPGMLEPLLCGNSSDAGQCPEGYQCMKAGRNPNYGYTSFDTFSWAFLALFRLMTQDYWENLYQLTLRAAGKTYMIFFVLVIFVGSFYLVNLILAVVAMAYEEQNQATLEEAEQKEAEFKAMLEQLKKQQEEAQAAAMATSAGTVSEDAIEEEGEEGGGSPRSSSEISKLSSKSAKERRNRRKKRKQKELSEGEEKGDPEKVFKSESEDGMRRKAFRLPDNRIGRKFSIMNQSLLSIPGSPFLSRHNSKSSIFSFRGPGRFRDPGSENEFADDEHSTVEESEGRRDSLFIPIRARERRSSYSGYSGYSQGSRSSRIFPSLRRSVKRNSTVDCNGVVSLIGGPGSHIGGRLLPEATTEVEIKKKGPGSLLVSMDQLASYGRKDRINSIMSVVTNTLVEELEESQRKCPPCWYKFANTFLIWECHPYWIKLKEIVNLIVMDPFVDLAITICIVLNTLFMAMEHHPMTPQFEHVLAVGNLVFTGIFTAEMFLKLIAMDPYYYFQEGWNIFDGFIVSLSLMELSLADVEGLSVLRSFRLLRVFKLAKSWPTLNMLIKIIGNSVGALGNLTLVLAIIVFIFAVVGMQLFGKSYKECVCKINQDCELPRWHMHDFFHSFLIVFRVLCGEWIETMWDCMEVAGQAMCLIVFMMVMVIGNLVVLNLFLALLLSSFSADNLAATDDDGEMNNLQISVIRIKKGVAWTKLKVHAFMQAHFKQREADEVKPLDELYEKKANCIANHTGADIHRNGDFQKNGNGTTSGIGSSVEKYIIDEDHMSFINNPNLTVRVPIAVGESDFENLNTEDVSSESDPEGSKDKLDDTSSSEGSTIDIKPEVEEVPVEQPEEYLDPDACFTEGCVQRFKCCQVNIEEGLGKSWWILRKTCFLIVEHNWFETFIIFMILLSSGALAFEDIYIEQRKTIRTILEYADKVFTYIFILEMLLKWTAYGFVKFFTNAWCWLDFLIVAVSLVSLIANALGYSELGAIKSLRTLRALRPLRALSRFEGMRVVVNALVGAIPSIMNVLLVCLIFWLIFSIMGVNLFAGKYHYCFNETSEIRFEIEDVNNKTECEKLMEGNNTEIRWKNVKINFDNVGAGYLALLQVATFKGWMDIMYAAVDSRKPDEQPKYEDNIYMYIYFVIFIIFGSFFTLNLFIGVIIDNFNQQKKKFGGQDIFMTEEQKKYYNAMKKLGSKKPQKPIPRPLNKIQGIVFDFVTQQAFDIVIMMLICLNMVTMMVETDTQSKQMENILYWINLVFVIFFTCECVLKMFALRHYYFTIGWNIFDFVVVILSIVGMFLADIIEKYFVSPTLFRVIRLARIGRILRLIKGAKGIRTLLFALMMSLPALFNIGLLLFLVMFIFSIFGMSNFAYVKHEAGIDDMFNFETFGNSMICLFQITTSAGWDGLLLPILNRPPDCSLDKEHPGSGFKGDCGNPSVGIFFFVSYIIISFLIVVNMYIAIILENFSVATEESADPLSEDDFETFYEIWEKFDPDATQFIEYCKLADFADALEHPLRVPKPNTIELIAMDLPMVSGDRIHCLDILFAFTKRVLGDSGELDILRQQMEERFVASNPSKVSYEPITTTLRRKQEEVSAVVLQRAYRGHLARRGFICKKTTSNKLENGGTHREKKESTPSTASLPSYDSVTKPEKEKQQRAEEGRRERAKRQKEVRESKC

In the case of “IGEKVTIRLITSTNINDDFNIYQQKPGEPPKLL (Synthetic Peptide 7)”, the “blockage of the NaV1.7 sodium channel” value with NaV1.7 is listed as “substantial blockage”. For the same sequence, the “effect on NaV1.6 currents” value with NaV1.6 is on record as “potentiates”. Also, the “Peak current density, Nav1.6 (Treatment)” value with NaV1.6 (500 nM peptide) is on record as 121.14 ± 16.6 (10)^c. Also, the “effect on NaV1.5 currents” value with human NaV1.5 channel is reported as “no effects”.

For “DCLGLFRKCIPDMLKCCRFNLVCSRLHKWCKYVF (Synthetic Peptide 3)”, in the test with NaV1.7, the “blockage of the NaV1.7 sodium channel” value is recorded as “substantial blockage”. The “effect on NaV1.6 currents” value with NaV1.6 was “suppressed”; with NaV1.6 (listed as peptide 3), “suppresses”. Further, the “Peak current density, Nav1.6 (Treatment)” value with NaV1.6 (500 nM peptide) was 25.32 ± 4.1 (6)^b. Besides, the “effect on NaV1.5 currents” value with human NaV1.5 channel is “suppressed”.

On to “DCLGFMRKCLSTTDLDDDWNCCRPNLVCSRTHKWCKYVF (Synthetic Peptide 8)”, for which, in the test with NaV1.7, the “blockage of the NaV1.7 sodium channel” value is given as “substantial blockage”. Also, the “peak current density, treatment (text of b104)” value in the test with NaV1.6 (500 nM peptide, control 194.86, n=8, treatment n=7, sentence cites FIG. 14A-C) is on record as 104.78. Besides, the “effect on NaV1.6 currents” value with NaV1.6 is on record as “no effects”; with NaV1.6 (listed as peptide 8), “no statistically significant effect”. Further, the “Peak current density, Nav1.6 (Treatment)” value with NaV1.6 (500 nM peptide) is 59.75 ± 5.4 (6)^NS. For the same sequence, in the test with human NaV1.5 channel, the “effect on NaV1.5 currents” value is “no effects”.

With SDEIPATFGGGTDAGL (Synthetic Peptide 1), the “blockage of the NaV1.7 sodium channel” value in the test with NaV1.7 is “substantial blockage”. Besides, the “effect on NaV1.6 currents” value in the test with NaV1.6 is listed as “suppressed”; in the test with NaV1.6 (listed as peptide 1), “suppresses”. The “Peak current density, Nav1.6 (Treatment)” value with NaV1.6 (500 nM peptide) is recorded as 25.65 ± 5.2 (13)^a. Moreover, in the test with human NaV1.5 channel, the “effect on NaV1.5 currents” value is “no effects”.
